This passage reports Kd results from US20250215105A1 (published 2025).

Residue numbers refer to the chain shown, from its start.

To fix the notation:
B1: T-31414h4 (antibody, V domains shown)
VH: QVQLVQSGAEVKKPGASVKVSCKASGYTFKSYEMHWVRQAPGQGLEWMGRINPSVGSTWYAQKFQGRVIMIRDTSTSTVYMELSSLRSEDTAVYYCARGKREGGTEYLRNWGQGTLVTVSS
VL: EIVLIQSPGILSLSPGERATLSCRASQSVSSSYLAWYQQKPGQAPRLLIYGASSRATGIPDRFSGSGSGTDFTLTISRLEPEDFAVYYCQQYHSYITFGGGTKVEIK
B2: 6-3m1 (antibody, V domains shown)
VH: QVQLKQSGAELVKPGASVKLSCTASGFSIKDTYVHWVKQRPEQGLEWIGKIDPANVNTKFDPKFQGKATITADTSSNTAYLQLSSLTSEDTAVYYCALYGYDDDAYYFDYWGQGTTLTVSS
VL: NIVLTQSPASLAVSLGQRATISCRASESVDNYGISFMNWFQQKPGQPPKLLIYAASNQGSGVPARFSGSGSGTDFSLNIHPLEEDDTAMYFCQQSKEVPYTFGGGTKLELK
B3: I-394h4 (antibody, V domains shown)
VH: EVQLQQSGPELVKPGASVKMSCKASGYTFTDYNMHWVKQSHGRTLEWIGYIVPLNGGSTFNQKFKGRATLTVNTSSRTAYMELRSLTSEDSAAYYCARGGTRFAYWGQGTLVTVSA
VL: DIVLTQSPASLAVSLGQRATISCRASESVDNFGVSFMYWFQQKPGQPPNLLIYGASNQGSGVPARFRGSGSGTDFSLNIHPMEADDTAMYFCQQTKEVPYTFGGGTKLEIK
B4: 23-7m1 (antibody, V domains shown)
VH: EVQLQQSGPELEKPGASVKISCKVSGYSFTDYNLNWVKQYNGKNLEWIGNIDPYSGGTRYNQKFKGKATLTIDQSSSTAYMHLKSLTSEDSAVYYCGLYGYDDDANYFDDWGQGTTLTVSS
VL: EIVLTQSPAIMSPSPGEKVTIACSASSSVSYMHWFQQKPGTSPKLWIYATSNLASGVPARFSGSGSGTSYSLTISRMEAEDVATYYCQQRSSYPLTFGAGTKLELK
B5: T86_sc (antibody, V domains shown)
VH: QIQLVQSGPELKKPGETVKISCEASGYTFINYGMNWVKQAPGKGLKWMGWINTYTGEPTYADDFKGRFAFSLETSANTAYLQINNLKNEDTATYFCARKGYYGYPNYYAMDYWGQGTSVTVSS
VL: DIVMTQSQKFMSTSVGDRVSITCKASQNVGTAVAWYQQKPGQSPKLLIYSASNRYTGVPDRFTGSGSGTDFTLTISNMQSEDLADYFCQQYSSYPITFGTGTKLEIK
B6: HuP4_IB_sc (Fc fusion)
VH: QVQLLESGPELVKPSATLSITCTVSGFSLTNYGVHWIRQAPGKGLEWLGVILRRGSTDYNAAFMSRFTISKDNSKNQVYFKLRSVTAEDTAVYYCAKTAVVAGDYFDYWGQGTMVTVSS
VL: DIQMTQSHSTLSLSVGDRVTITCKASQNVGTNVAWYQQKPGQPPKALIYSASYRYSGVPSRFSGSGSGTDFTLTISSVQAEDVAVYYCQQYNSYPLTFGPGTKLEIK
B7: Tre_291_sc (antibody, V domains shown)
VH: QVQLKQSGPGLVQPSQSLSITCTVSGFSLTSYGVHWVRQSPGKGLEWLGVIWRRGSTDYNAAFMSRLSITKDTSKSQVFFKMNSLQTDDTAIYYCAGVRGDAMDYWGQGTSVTVSS
VL: DIVMTQSHKSMSTSVGDRVSVTCKASQNVGTNVAWYQQKPGQSPKALIYSASYRYSGVPDRFTGSGSGTDFTLTISNVQSEDLAEYFCQQYNSYPLTFGGGTKLEIK
B8: P4_sc (Fc fusion)
VH: QVQLKESGPSLVQPSQSLSITCTVSGFSLTNYGVHWVRQSPGKGLEWLGVILRRGSTDYNAAFMSRLSITKDNSKSQVFFKMNSLQADDTAIYYCAKTAVVAGDYFDYWGQGTTLTVSS
VL: B7 VL with S10F, G100T
B9: HuP4_41_sc (antibody, V domains shown)
VH: QVQLVESGGGVVQPGGSLRLSCVVSGFTLTNYGVHWVRQAPGKGLEWLAVILRRGSTDYNAAFMSRLAISKDNSKNTVYLELNSLRLDDTAVYYCAKTAVVAGDYFDYWGQGTTVTVSS
VL: B7 VL with H8Q, S10F, V21I, A46L, V78M, E85D
B10: mAnE67_sc (antibody, V domains shown)
VH: EVQLVESGGGLVKPGGSRKLSCAASGFTFSDYGMHWVRQAPEKGLEWVAYISSGSSIIYYADTVKGRFTISRDNAKNTLFLQMTGLRSEDTAMYYCARKDYPYAMDYWGQGTSLAVSS
VL: B7 VL
B11: HuP4_51_sc (antibody, V domains shown)
VH: B9 VH with T28S, A49G
VL: B7 VL with H8Q, S10F, V21I, A46L, V78M, E85D
B12: I67_sc (antibody, V domains shown)
VH: DVQLQESGPSLVQPSQSLSINCTVSGFSLSSYGVHWVRQSPGKGLEWLGVIWRRGSTDYNAAFMSRLSITKDNSKSQVFFKMNRLQADDTATYYCAKGISTATSWFAYWGQGTLVTVSA
VL: B7 VL with S10F, G100A, I106L
B13: HuP4_11_sc (antibody, V domains shown)
VH: EVQLVESGGALVQPGRSLRLSCAVSGFTLSNYGVHWVRQAPGKGLEWVAVILRRGSTDYNAAFMSRFTISKDNSKNTVYLQMNSLRADDTAVYYCAKTAVVAGDYFDYWGQGTTVTVSS
VL: B7 VL with H8Q, S10F, V21I, A46L, V78M, E85D

The first experiment addresses T1, human CD39 recombinant antigen (UniProt P49961 38-478).
T1 chain: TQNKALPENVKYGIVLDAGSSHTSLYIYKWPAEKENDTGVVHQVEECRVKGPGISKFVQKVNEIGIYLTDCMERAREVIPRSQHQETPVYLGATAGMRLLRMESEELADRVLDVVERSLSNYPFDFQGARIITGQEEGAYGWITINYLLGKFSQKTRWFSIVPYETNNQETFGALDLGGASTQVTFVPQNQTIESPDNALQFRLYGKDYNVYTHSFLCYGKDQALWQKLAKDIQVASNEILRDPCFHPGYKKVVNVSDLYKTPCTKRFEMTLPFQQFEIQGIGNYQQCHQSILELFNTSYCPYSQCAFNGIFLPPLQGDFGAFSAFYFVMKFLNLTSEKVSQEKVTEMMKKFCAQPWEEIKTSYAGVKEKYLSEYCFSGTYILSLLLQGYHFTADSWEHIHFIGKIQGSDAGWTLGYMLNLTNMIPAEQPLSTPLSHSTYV
Kind of experiment: SPR. (In general: Surface plasmon resonance follows binding to a sensor surface in real time, without labels.)
Usually Kd stands for the free concentration of one partner at which half of the binding sites on the other are occupied at equilibrium, for simple one-to-one binding. As to B1, the Kd amounted to 9.83 nM. Same read-out and setting: the figure for B2 is 0.399 nM. B3: the Kd turned out to be 0.956 nM.

Take B4: the Kd was found to be 0.573 nM.

The target in the next experiment is T1, human CD39 recombinant antigen. Kind of experiment: SPR. The source holds these as a separate data set.
As to B5, the Kd is 4.28 nM. B6: the Kd turned out to be 0.396 nM. Same read-out and setting: next, B7: 2.22 nM.

On to B8, for which the Kd is 0.307 nM. The same measure, in the same setting: next, B9: 0.106 nM; B10: 4.75 nM. The same measure, in the same setting: the figure for B11 is 0.369 nM; for B12 it is 1.65 nM. B13: the Kd came to 0.377 nM.
